Assay results as given in patent publication US9307782B2, “Mannanase produced from Cellulosimicrobium sp. strain HY-13” (Korea Research Institute of Bioscience and Biotechnology, priority 2011, dated 2016).
Like-named read-outs stand apart in the source and are kept apart here. Marks after values point to notes of the source that are not given here.

Key:
[1] = Specific activity of mannanase (substrate specificity); format: biochemical
Description: (§1) The activity of β-1,4-mannanase was investigated by measuring the reduced amount of glucose isolated from locust bean gum using 3,5-dinitrosalicylic acid (DNS). At this time, D-mannose was used as a standard material. 0.5 Ml of a standard mixture composed of 0.5% locust bean gum was mixed with 0.05 Ml of an enzyme aqueous solution, followed by inducing biodegradation reaction in 50 mM sodium phosphate buffer (pH 6.0) at 50° C. for 15 minutes. The activity of the recombinated mannanase (1 IU) to the mannan substrate was defined as the amount of the protein necessary for the secretion of 1 μmol reducing sugar under the standard analysis condition. Chromogenic PNP-sugar derivative was used to measure another degrading activity of the said recombinated enzyme. The enzyme activity of the recombinated mannanase to the chromogenic substrate was measured under the same conditions as set for the analysis of β-1,4-mannanase activity. The activity of the recombinated mannanase (1 IU) to the PNP-sugar derivative was defined as the amount of the protein necessary for the production of 1 μmol PNP under the standard analysis condition.

[2] = toward locust bean gum; comparison enzymes of other strains; cited from earlier work
[3] = Analysis of degradation product (HPLC, LC-MS/MS); format: biochemical
Description: (§2) Mannooligomer (M2˜M5, 1 mg/100 μl each) and locust bean gum (1.4 mg/100 μl) were reacted in 50 mM sodium phosphate buffer (pH 6.0) containing 1 μg of the recombinant mannanase at 30° C. for 12 hours, followed by investigation of the hydrolysate. HPLC (high performance liquid chromatography) was performed by using Finnigan Surveyor™ Modular HPLC systems (Thermo Electron Co.) equipped with Asahipak NH2P-50 2D column (5 μm, 2.0×150 mm, Shodex) ran by Xcalibur software (version 1.3 SP2, Thermo Electron Co.). Elution buffer A (0.05% pomalus acid/sterilized water) and elution buffer B (acetonitrile and methanol (7:3) containing 0.05% pomalus acid) were used as moving phases. LC-MS/MS (liquid chromatography/tandem mass spectrometry) was performed by using Finnigan LCQ Advantage MAX ion trap mass spectrometer (Thermo Electron Co.).

[4] = Specific activity of mannanase (substrate specificity); format: biochemical; conditions: substrate Birchwood xylan
From the text: as §1, with “0.5 Ml of a standard mixture composed of 0.5% locust bean gum was mixed with 0.05 Ml of an enzyme aqueous solution, followed by inducing biodegradation reaction in 50 mM sodium phosphate buffer (pH 6.0) at 50° C. for 15 minutes.” left out, “Chromogenic PNP-sugar derivative was used to measure another degrading activity of the said recombinated enzyme.” left out

[5] = Analysis of degradation product (HPLC, LC-MS/MS); format: biochemical; conditions: substrate Ivory nut mannan; LC area %
Description: as §2, with “Mannooligomer (M2˜M5, 1 mg/100 μl each) and locust bean gum (1.4 mg/100 μl) were reacted in 50 mM sodium phosphate buffer (pH 6.0) containing 1 μg of the recombinant mannanase at 30° C. for 12 hours, followed by investigation of the hydrolysate.” left out

[6] = Specific activity of mannanase (DNS reducing sugar assay); format: biochemical; conditions: for Specific activity: pH 6.0, 50° C., 15 minutes
Description: To compare the mannanase activity to different matrixes, locust bean gum, ivory nut mannan and guar gum were used as matrixes and the activity of the purified mannanase to those matrixes were investigated.
as §1

[7] = format: physicochemical
Description: To determine the optimum reaction temperature of the mannanase, mannanase activity was measured at different temperatures of 37, 40, 45, 50, 55, 60, 65, and 70° C. To measure thermo-stability, the mannanase was heat-treated at the said temperatures for 15, 30, and 60 minutes and then the remained activity was measured. To determine the optimum reaction pH, the mannanase was treated respectively with 50 mM of sodium citrate buffer (pH 4.0˜5.5), phosphate buffer (pH 5.5˜7.5), Tris-HCl buffer (pH 7.5˜9.0), and glycine-NaOH buffer (pH 9.0˜10.0) in pH range of 4.0˜10.0 at 55° C. for 15 minutes, followed by measurement of enzyme reaction.

[8] = Binding of mannanase to insoluble polymer; conditions: enzyme 5.0 IU/Ml, on ice two hours, pH 6.0
Description: The mannanase of the present invention contains two family 10 CBMs at C-terminal, which plays an important role in enzyme-substrate interaction. As the mannanase was expected to bind to various carbohydrate polymers, hydrophobic materials having microstructures including polysaccharide, poly(3HB) granules, and lignin were used as substrates to investigate enzyme-substrate binding activity of the mannanase.
Before analyzing the binding activity, insoluble substrates were washed with 50 mM sodium phosphate buffer (pH 6.0) 5 times, followed by measuring the binding capacity of the enzyme to the hydrophobic materials. Particularly, the enzyme diluted at the concentration of 5.0 IU/Ml was put on ice for two hours with the equal volume of a substrate polymer. The mixture was stirred every 5 minute. The mixture was centrifuged at 12,000×g to obtain supernatant. Then, the activity of β-1,4-mannanase thereof was measured.

[9] = substrate Locust bean gum, 1 μg recombinant mannanase, pH 6.0, 30° C., 12 hours, LC area %

binding to insoluble polymer ([8]; Avicel): strongly conjugated | binding to insoluble polymer ([8]; chitin): strongly conjugated | binding to insoluble polymer ([8]; chitosan): strongly conjugated | binding to insoluble polymer ([8]; curdlan): not conjugated | binding to insoluble polymer ([8]; insoluble ivory nut mannan): strongly conjugated | binding to insoluble polymer ([8]; insoluble oat spelt xylan): not conjugated | binding to insoluble polymer ([8]; lignin): not conjugated | binding to insoluble polymer ([8]; poly(3HB) granules): not conjugated
B1: Mannanase: Wild type β-1,4-mannanase of Bacillus subtilis WY34 (protein)
chain: MRRLFAIVLGAVLALLAVPALAQGASVASDGFSVQDGRIYDANGNRFVPVGVNHAHAWYPSQTQSFADIRAAGANTVRVVLSGGRYGTSSAADVSAVVERCKQNQLVCILENHDTTGYGEDGSARSLASAAQYWTSIASVLRGQERYVMINIGNEPFGNSGFQSWTTDTIAAIRTLRAAGLDHTLVVDAPNWGQDWSFTMRDNAPTVAAADGNVVFSVHMYGVFDTGAEVRAYLDSFTSRGLPIMVGEFGDNHSDGNPDEATIMSYTRSQGIGMLGWSWSGNGGGVEYLDMVNGFSASSLTPWGQRFVHGADGLRARNAPAASVYGGDGGDGDGGAGTAPNGYPYCASASSDPDGDGWGWESSASCVVRGSSADTGSGGGSGSGSTAPNGYPYCASASSDPDGDGWGWESSASCVVRGSSADR
modifications: cellulosimicrobium
notes: Wild type β-1,4-mannanase of Bacillus subtilis WY34
degradation of carbohydrate ([1]; substrate carboxymethylcellulose): not degraded | degradation of carbohydrate ([1]; substrate pectin): not degraded | degradation of carbohydrate ([1]; substrate soluble starch): not degraded | Specific activity [2]: 8,302^d IU/mg | Composition (%) of products formed by hydrolysis reaction: M1 [3, 9]: 1.1% | Composition (%) of products formed by hydrolysis reaction: M2 [3, 9]: 6.4% | Composition (%) of products formed by hydrolysis reaction: M3 [3, 9]: 1.5% | Composition (%) of products formed by hydrolysis reaction: M4 [3, 9]: 7.4% | Composition (%) of products formed by hydrolysis reaction: M5 [3, 9]: 44.2% | degradation of substrate ([3]; substrate M2 (printed N2)): not degraded | hydrolysis products: mannooligomer (at least M6) ([3]; substrate locust bean gum, sum of M6 and larger): 39.4% | degradation of carbohydrate [4]: not degraded | Composition (%) of products formed by hydrolysis reaction: M4 [5]: 25.2% | specific activity to ivory nut mannan relative to guar gum ([6]; ratio ivory nut mannan / guar gum): 15.2 fold | specific activity to ivory nut mannan relative to locust bean gum ([6]; ratio ivory nut mannan / locust bean gum): 1.7 fold | Specific activity ([6]; toward guar gum): 967 IU/mg | Specific activity ([6]; toward insoluble ivory nut mannan): 14,711 IU/mg | Specific activity ([6]; toward locust bean gum): 8,498 IU/mg | Half life of the enzyme [7]: 15 min | Thermolability ([7]; exposed on the temperature of 55° C.): rapidly increased
